# Data: publication PMC8020655
# Biological target: His6-PopA_(R357G) labelled with Atto-488 (Caulobacter crescentus)
# Assay: MST
substance,measurement,value
His6-SmrF (from UniProt A0A0H3C860 1-122) (natural protein),Kd,5.1 µM
